The text below walks through data of article PMC9892032.

The stoichiometry N is a count of units in the complex or per binding partner.

Values joined by “and” are separate entries in the source; they are usually repeats but may differ in a detail not shown here. Equal entries are not always repeated.

In the assay the target is Lake Sinai virus 2 capsid protein, full-length (residues 1–520) (Lake Sinai virus 2). Put plainly: cryo-EM structure; purified LSV2 VLPs (30 mg/mL) assembled in vitro in 50 mM HEPES, 300 mM NaCl at pH 6.5, 7.5 or 8.5; T = 4 and T = 3 particles from single datasets, icosahedral and focused refinement.

As for “Lake Sinai virus 2 capsid protein, full-length (residues 1–520) (natural protein)”, the stoichiometry N is 240 copies and 180 copies.
